Results taken from patent publication US20190071490A1 (BETH ISRAEL DEACONESS MEDICAL CENTER, published 2019).

Legend:
rat α-CGRP (1-37) = molecular target: T1, rat α-CGRP (1-37) (rat, C-terminal amide; N-terminal biotin when captured on the SA chip); test: Biacore, 37°C, Fab over CGRP on SA chip
T1 construct: also called rat α (1-37); α-rat
T1 peptide: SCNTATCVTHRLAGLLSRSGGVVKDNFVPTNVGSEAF
Method: (§1) Biacore assay for affinity determination. […] All Biacore assays were conducted in HBS-EP running buffer (10 mM HEPES pH 7.4, 150 mM NaCl, 3 mM EDTA, 0.005% v/v polysorbate P20). CGRP surfaces were prepared by diluting the N-biotinylated CGRP to a concentration of less than 0.001 mg/mL into HBS-EP buffer and injecting it across the SA sensor chip using variable contact times. […] Samples were typically injected for 1 minute at 100 μL/min and dissociation times of at least 10 minutes were allowed. […] An entire titration series (typically generated in duplicate) was fit globally to a 1:1 Langmuir binding model using the BIAevaluation program. This returned a unique pair of association and dissociation kinetic rate constants (respectively, kₒₙ and koff) for each binding interaction, whose ratio gave the equilibrium dissociation constant (KD=koff/kₒₙ). […]

human α-CGRP 1-37 (WT) = molecular target: T2, human α-CGRP 1-37 (WT) (human, C-terminal amide; N-terminal biotin when captured on the SA chip; 125I-labelled in the radioligand assay); test: Biacore, 37°C, Fab over CGRP on SA chip
T2 construct: also called α-human
T2 peptide: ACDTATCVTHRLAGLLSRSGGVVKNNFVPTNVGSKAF
Method: as §1

Row | Binder | koff (rat α-CGRP (1-37)) [s⁻¹] | koff (human α-CGRP 1-37 (WT)) [s⁻¹] | Kd (rat α-CGRP (1-37)) [nM] | Kd (human α-CGRP 1-37 (WT)) [nM]
1 | G1 variant M1 Fab (Fab, V domains shown, Fab; constant domains as m1) VH: EVQLVESGGGLVQPGGSLRLSCAASGFTFSNYWISWVRQAPGKGLEWVAEIRSESDASATHYAEAVKGRFTISRDNAKNSLYLQMNSLRAEDTAVYYCLLYFDYGLAIQNYWGQGTLVTVSS VL: EIVLTQSPATLSLSPGERATLSCKASKRVTTYVSWYQQKPGQAPRLLIYGASNRYLGIPARFSGSGSGTDFTLTISSLEPEDFAVYYCSQSYNYPYTFGQGTKLEIK | 0.0011 | 0.000173 | – | –
2 | G1 variant M8 Fab (Fab, V domains shown, Fab; constant domains as m1) VH: EVQLVESGGGLVQPGGSLRLSCAASGFTFSNYWISWVRQAPGKGLEWVAEIRSESDASATHYAEAVKGRFTISRDNAKNSLYLQMNSLRAEDTAVYYCNGYFDYGLAIQNYWGQGTLVTVSS VL: EIVLTQSPATLSLSPGERATLSCKASKRVTTYVSWYQQKPGQAPRLLIYGASNRYLGIPARFSGSGSGTDFTLTISSLEPEDFAVYYCSQSYNYPYTFGQGTKLEIK | 0.000745 | 9.2e-05 | 41.4 | 0.58
3 | G1 variant M2 Fab (Fab, V domains shown, Fab; constant domains as m1) VH: EVQLVESGGGLVQPGGSLRLSCAASGFTFSNYWISWVRQAPGKGLEWVAEIRSESDASATHYAEAVKGRFTISRDNAKNSLYLQMNSLRAEDTAVYYCARYFDYGLAIQNYWGQGTLVTVSS VL: EIVLTQSPATLSLSPGERATLSCKASKRVTTYVSWYQQKPGQAPRLLIYGASNRYLGIPARFSGSGSGTDFTLTISSLEPEDFAVYYCSQSYNYPYTFGQGTKLEIK | 0.0026 | 0.00031 | 58 | 3
4 | G1 variant M14 Fab (Fab, V domains shown, Fab; constant domains as m1) VH: EVQLVESGGGLVQPGGSLRLSCAASGFTFSNYWISWVRQAPGKGLEWVAEIRSESDASATHYAEAVKGRFTISRDNAKNSLYLQMNSLRAEDTAVYYCTKYFDYGLAIQNYWGQGTLVTVSS VL: EIVLTQSPATLSLSPGERATLSCKASKRVTTYVSWYQQKPGQAPRLLIYGASNRYLGIPARFSGSGSGTDFTLTISSLEPEDFAVYYCSQSYNYPYTFGQGTKLEIK | – | ≤ 1e-05 | – | ≤ 0.06
5 | G1 variant M13 Fab (Fab, V domains shown, Fab; constant domains as m1) VH: EVQLVESGGGLVQPGGSLRLSCAASGFTFSNYWISWVRQAPGKGLEWVAEIRSESDASATHYAEAVKGRFTISRDNAKNSLYLQMNSLRAEDTAVYYCTGYFDYGLAIQNYWGQGTLVTVSS VL: EIVLTQSPATLSLSPGERATLSCKASKRVTTYVSWYQQKPGQAPRLLIYGASNRYLGIPARFSGSGSGTDFTLTISSLEPEDFAVYYCSQSYNYPYTFGQGTKLEIK | 0.00184 | 0.000186 | 102 | 1.16
6 | G1 variant M7 Fab (Fab, V domains shown, Fab; constant domains as m1) VH: EVQLVESGGGLVQPGGSLRLSCAASGFTFSNYWISWVRQAPGKGLEWVAEIRSESDASATHYAEAVKGRFTISRDNAKNSLYLQMNSLRAEDTAVYYCNCYFDYGLAIQNYWGQGTLVTVSS VL: EIVLTQSPATLSLSPGERATLSCKASKRVTTYVSWYQQKPGQAPRLLIYGASNRYLGIPARFSGSGSGTDFTLTISSLEPEDFAVYYCSQSYNYPYTFGQGTKLEIK | 0.000918 | 0.000243 | 51 | 1.52
7 | G1 variant M5 Fab (Fab, V domains shown, Fab; constant domains as m1) VH: EVQLVESGGGLVQPGGSLRLSCAASGFTFSNYWISWVRQAPGKGLEWVAEIRSESDASATHYAEAVKGRFTISRDNAKNSLYLQMNSLRAEDTAVYYCAYYFDYGLAIQNYWGQGTLVTVSS VL: EIVLTQSPATLSLSPGERATLSCKASKRVTTYVSWYQQKPGQAPRLLIYGASNRYLGIPARFSGSGSGTDFTLTISSLEPEDFAVYYCSQSYNYPYTFGQGTKLEIK | 0.000735 | 3.22e-05 | 40.8 | 0.2
8 | G1 variant M12 Fab (Fab, V domains shown, Fab; constant domains as m1) VH: EVQLVESGGGLVQPGGSLRLSCAASGFTFSNYWISWVRQAPGKGLEWVAEIRSESDASATHYAEAVKGRFTISRDNAKNSLYLQMNSLRAEDTAVYYCSVYFDYGLAIQNYWGQGTLVTVSS VL: EIVLTQSPATLSLSPGERATLSCKASKRVTTYVSWYQQKPGQAPRLLIYGASNRYLGIPARFSGSGSGTDFTLTISSLEPEDFAVYYCSQSYNYPYTFGQGTKLEIK | 0.00194 | 0.000101 | 108 | 0.63
9 | G1 variant M11 Fab (Fab, V domains shown, Fab; constant domains as m1) VH: EVQLVESGGGLVQPGGSLRLSCAASGFTFSNYWISWVRQAPGKGLEWVAEIRSESDASATHYAEAVKGRFTISRDNAKNSLYLQMNSLRAEDTAVYYCSTYFDYGLAIQNYWGQGTLVTVSS VL: EIVLTQSPATLSLSPGERATLSCKASKRVTTYVSWYQQKPGQAPRLLIYGASNRYLGIPARFSGSGSGTDFTLTISSLEPEDFAVYYCSQSYNYPYTFGQGTKLEIK | 0.00483 | 0.000283 | 268 | 1.77
10 | G1 variant M19 Fab (Fab, V domains shown, Fab; constant domains as m1) VH: EVQLVESGGGLVQPGGSLRLSCAASGFTFSNYWISWVRQAPGKGLEWVAEIRSESDASATHYAEAVKGRFTISRDNAKNSLYLQMNSLRAEDTAVYYCVRYFDYGLAIQNYWGQGTLVTVSS VL: EIVLTQSPATLSLSPGERATLSCKASKRVTTYVSWYQQKPGQAPRLLIYGASNRYLGIPARFSGSGSGTDFTLTISSLEPEDFAVYYCSQSYNYPYTFGQGTKLEIK | – | ≤ 1e-05 | – | ≤ 0.06
11 | G1 variant M6 Fab (Fab, V domains shown, Fab; constant domains as m1) VH: EVQLVESGGGLVQPGGSLRLSCAASGFTFSNYWISWVRQAPGKGLEWVAEIRSESDASATHYAEAVKGRFTISRDNAKNSLYLQMNSLRAEDTAVYYCNAYFDYGLAIQNYWGQGTLVTVSS VL: EIVLTQSPATLSLSPGERATLSCKASKRVTTYVSWYQQKPGQAPRLLIYGASNRYLGIPARFSGSGSGTDFTLTISSLEPEDFAVYYCSQSYNYPYTFGQGTKLEIK | 0.000784 | 0.000133 | 43.6 | 0.83
12 | G1 variant M4 Fab (Fab, V domains shown, Fab; constant domains as m1) VH: EVQLVESGGGLVQPGGSLRLSCAASGFTFSNYWISWVRQAPGKGLEWVAEIRSESDASATHYAEAVKGRFTISRDNAKNSLYLQMNSLRAEDTAVYYCAVYFDYGLAIQNYWGQGTLVTVSS VL: EIVLTQSPATLSLSPGERATLSCKASKRVTTYVSWYQQKPGQAPRLLIYGASNRYLGIPARFSGSGSGTDFTLTISSLEPEDFAVYYCSQSYNYPYTFGQGTKLEIK | 0.00152 | 6.95e-05 | 84.4 | 0.43
13 | G1 variant M15 Fab (Fab, V domains shown, Fab; constant domains as m1) VH: EVQLVESGGGLVQPGGSLRLSCAASGFTFSNYWISWVRQAPGKGLEWVAEIRSESDASATHYAEAVKGRFTISRDNAKNSLYLQMNSLRAEDTAVYYCTPYFDYGLAIQNYWGQGTLVTVSS VL: EIVLTQSPATLSLSPGERATLSCKASKRVTTYVSWYQQKPGQAPRLLIYGASNRYLGIPARFSGSGSGTDFTLTISSLEPEDFAVYYCSQSYNYPYTFGQGTKLEIK | 0.00115 | 1.58e-05 | 63.9 | 0.1
14 | G1 variant M9 Fab (Fab, V domains shown, Fab; constant domains as m1) VH: EVQLVESGGGLVQPGGSLRLSCAASGFTFSNYWISWVRQAPGKGLEWVAEIRSESDASATHYAEAVKGRFTISRDNAKNSLYLQMNSLRAEDTAVYYCNYYFDYGLAIQNYWGQGTLVTVSS VL: EIVLTQSPATLSLSPGERATLSCKASKRVTTYVSWYQQKPGQAPRLLIYGASNRYLGIPARFSGSGSGTDFTLTISSLEPEDFAVYYCSQSYNYPYTFGQGTKLEIK | – | ≤ 1e-05 | – | ≤ 0.06
15 | G1 variant M10 Fab (Fab, V domains shown, Fab; constant domains as m1) VH: EVQLVESGGGLVQPGGSLRLSCAASGFTFSNYWISWVRQAPGKGLEWVAEIRSESDASATHYAEAVKGRFTISRDNAKNSLYLQMNSLRAEDTAVYYCSSYFDYGLAIQNYWGQGTLVTVSS VL: EIVLTQSPATLSLSPGERATLSCKASKRVTTYVSWYQQKPGQAPRLLIYGASNRYLGIPARFSGSGSGTDFTLTISSLEPEDFAVYYCSQSYNYPYTFGQGTKLEIK | 0.00151 | 0.000173 | 83.9 | 1.08
16 | G1 variant M3 Fab (Fab, V domains shown, Fab; constant domains as m1) VH: EVQLVESGGGLVQPGGSLRLSCAASGFTFSNYWISWVRQAPGKGLEWVAEIRSESDASATHYAEAVKGRFTISRDNAKNSLYLQMNSLRAEDTAVYYCASYFDYGLAIQNYWGQGTLVTVSS VL: EIVLTQSPATLSLSPGERATLSCKASKRVTTYVSWYQQKPGQAPRLLIYGASNRYLGIPARFSGSGSGTDFTLTISSLEPEDFAVYYCSQSYNYPYTFGQGTKLEIK | 0.002 | 0.00021 | 61 | 1.7
